Measurements as given in patent US20130309248A1 (CRUCELL HOLLAND B V, published 2013).

Columns and labels:
Experiment in all cases: cell-based or functional assay
[1] = target: HA of virus A/New Caledonia/20/1999 (H1N1) (influenza A virus (H1N1))
[2] = target: HA of virus A/Brisbane/59/2007 (H1N1) (influenza A virus (H1N1))
[3] = target: HA of virus A/Solomon Islands/IVR-145 (H1N1) (influenza A virus (H1N1))
[4] = target: T1, HA of virus A/Wisconsin/67/2005 (H3N2) (influenza A virus (H3N2))
[5] = target: T2, HA of virus A/Hiroshima/52/2005 (H3N2) (influenza A virus (H3N2))
[6] = target: T3, HA of virus A/Panama/2000/1999 (H3N2) (influenza A virus (H3N2))
[7] = target: T4, HA of virus A/Johannesburg/33/94 (H3N2) (influenza A virus (H3N2))
[8] = target: T5, HA of virus A/Mallard/Netherlands/12/2000 (H7N3) (influenza A virus (H7N3))
[9] = target: T6, HA of virus A/Chick/Germany/N/49 (H10) (influenza A virus (H10))
[10] = target: T1, HA of virus A/Wisconsin/67/2005 (H3N2); remark: listed apart in the source
[11] = target: T2, HA of virus A/Hiroshima/52/2005 (H3N2); remark: listed apart in the source
[12] = target: T3, HA of virus A/Panama/2000/1999 (H3N2); remark: listed apart in the source
[13] = target: T4, HA of virus A/Johannesburg/33/94 (H3N2); remark: listed apart in the source
[14] = target: T5, HA of virus …; remark: listed apart in the source
[15] = target: T6, HA of virus A/Chick/Germany/N/49 (H10); remark: listed apart in the source

B1: CR8041 (antibody, V domains shown)
VH: QVQLVQSGAEVKKPGASVKVSCQASGYTFTSFGLSWVRQAPGQGPEWMGWISAYNGEIKYAQKFQGRVSMTTDTSTRTAYMEVRSLRPDDTAVYYCAREPPLYFSSWSLDF
VL: EIVLTQSPGTLSLSPGERATLSCRASQSVSSNYLAWFQQKPGQAPRLLIYGASRRATGIPDRFSGSGSGTDFTLTISRLEPEDFAVYYCQQYDSSPRT
[1]
  Neutralization titer SK50: > 40 µg/mL
[2]
  Neutralization titer SK50: > 40 µg/mL
[3]
  Neutralization titer SK50: > 40 µg/mL
[4]
  Neutralization titer SK50: 3.99 µg/mL
[5]
  Neutralization titer SK50: 4.75 µg/mL
[6]
  Neutralization titer SK50: 2.99 µg/mL
[7]
  Neutralization titer SK50: 1.69 µg/mL
[8]
  Neutralization titer SK50: 1.1 µg/mL
[9]
  Neutralization titer SK50: 25 µg/mL
[10]
  SK50 titer: 3.3 µg/mL
[11]
  SK50 titer: 3.5 µg/mL
[12]
  SK50 titer: 5 µg/mL
[13]
  SK50 titer: 1.6 µg/mL
[14]
  SK50 titer: 38 µg/mL
[15]
  SK50 titer: 37.2 µg/mL
